According to paper PMC9942873 (Immunity, 2023):
Changes are numbered by the printed parent chain.

B1: RUPA-71 (antibody, V domains shown)
VH: EEQLVESGGGLVKPGRSLRLSCSASGFTLGDYAVTWFRQASGKEPEWVGVIRTKDEGGTTEYAASVKGRFSILRDDSKSIAHLQMNSLKIEDTAVYYCTRNGLRWYDSSGPRGWAFDIWGPGTLVVVSS
VL: EIVMTQSPATVSVSPGERATLSCRTSQSVSNKLAWYQQKPGQAPRLLIYGASTRATGIPARFSGSGSGTQFTLTISSLQSEDFAVYYCQQYNNWPPWTFGRGTKVEIK
notes: human IgG1; source: recombinant human IgG1, 293T (Protein A purified) or GenScript
B2: RUPA-77 (antibody, V domains shown)
VH: QITLKESGPTLVKPTQTLTLTCSFSGFSLTTAGVAVAWIRQPPGQALEWLGIIYWNDDKRYNPSFQNRLTIAKDTSKNQVVLTMTNMDPVDTGTYYCAHRILAAYNYFDPWGQGTLVTVSS
VL: DIQMTQSPPSLSASVGDRVTITCRASQPINNFLNWYQQRPGKAPKLLIYAASRLQSGVPSRFSGSVSGTDFTLTISSLQQEDFAIYYCQQSYTSPLTFGGGTKVEIK
notes: as for B1
B3: RUPA-78 (antibody, V domains shown)
VH: EGQLLESGGDLVQPGGSLRLSCAASRFTFNTFAMTWVRQAPGKGLEWVSTISRSGSSTFYADSVKGRFTISRDNSKDTLYLQMNSLRAEDTALYSCAKFRTPRFSSSSGDALDLWGQGTMVTVSS
VL: EIVLTQSPGTLSLSPGERATLSCRASQSVSSSYFAWYQRRPGQAPRLVIDGASSRATGIPDRFSGSGSGTDFTLTISRLEPEDFAVYYCQQYGVSPGTFGQGTKLEIK
notes: as for B1
B4: RUPA-66 (antibody, V domains shown)
VH: QVQVQQWGAGLLKPSETLSLTCAAFGGSFSDYYWSWIRQPPGKGLEWIGEINHSGTTNYNPSLKSRVIISVDTSKNQFSLKLSSVTAADTALYYCARRSSGWYRRSRYTGWFDPWGQGTLVTVSS
VL: EILMTQSPATLSVSPGERATLSCRASQTITSNLAWYQQKPGQAPRLLMYGASTRATGIPARFSGSGSGTEFTLTISSLQSEDFGIYYCQQYNNWPGLSFGGGTKVEIK
notes: as for B1
B5: RUPA-45 (antibody, V domains shown)
VH: QVQLQQWGAGLLKPSETLSLTCLVNGGSFSDYYWSWIRQPPGRGLEWIGDVNHSGTTNHRPSLQSRVTLSLDMSKNQFSLRLTSVTAADTAVYFCARRSSGYYRGSHYTGWFDPWGQGTLVTVSS
VL: B4 VL with L3V, M4L, S31R, M48I, T56P, G57D, G84A, I85L, S98T
notes: as for B1
B6: RUPA-75 (antibody, V domains shown)
VH: QVQLQQWGAGLLKPSETLSLTCGVNGGSFTDYYWTWIRQPPGKGLEWIGDINHSGITNYNPSLKSRLTLSVDTSKSHFSLRLNSVTAADTALYFCARRSSGYYRGSRYTGWLDPWGQGTLVTVSS
VL: B4 VL with L3V, R24W, T28S, M48I, E70G, S77T, L78V, G84A, I85V, S98T
notes: as for B1
B7: RUPA-36 (antibody, V domains shown)
VH: QVQLQQWGAGLLKPSETLSLTCAVEGDSLGDYYWSWIRQPPGKGLEWIGDINHSGTTNYIPSLKSRVTISVDPSRKHFSLKLNFVTAADTATYFCARRASGWYRQSRYTGWFDPWGQGTLVTVSS
VL: B4 VL with L3V, Q27H, T28S, T30N, L33V, M48I, S80T, G84A, I85V
notes: as for B1
B8: RUPA-26 (antibody, V domains shown)
VH: B5 VH with R81K, H107R
VL: B4 VL with L3V, M4L, S31R, M48I, T56P, G57D, G84A, I85L, S98T
notes: as for B1
B9: RUPA-46 (antibody, V domains shown)
VH: QVQLVQSGGGLVKPGGSLKLSCAASGFAFSDYYMHWIRQSPGKGLEWISYVSNSGNTIYYADSVKGRFTISRDNTKNSLFLQMNSLSADDTAVYYCARDRKGRNSETYYGALDVWGQGTTVTVST
VL: DIVMTQSLDSLAVSLGERATINCKSSQSVFSTYNNKNYLAWYQQKLGQPPKLLIYWASTRESGVPDRFSGSGSGTDFTLTISSLQAEDVAVYYCQQYYTTPTWTFGQGTKVEIK
notes: as for B1
B10: RUPA-30 (antibody, V domains shown)
VH: QVQLVQSGAEVKKPGASVKVSCKASGYTFTTYFLHWVRQAPGQGLEWMGVIHPSGGSTTYAENFEGRVTMSRDTSTSTVYMELSSVRYEDTAVYYCARAGEYCRGIRCYIDGLDIWGQGTTVTVSS
VL: DIQMTQSPSSLSASVGDRVTITCRASQGIRNDLGWYQQKPGKAPKRLIYAASSLQSGVPSRFSGSGSGTEFTLTISSLQPEDFATYYCLQHNDSPWTFGQGTKVEIK
notes: as for B1
B11: RUPA-37 (antibody, V domains shown)
VH: QEQLVQSGAELRTPGATVKVSCKAPAYTFTTYFMHWVRQAPGRGFEWLGRINPSRGSTTYADKFQGRVTMTSDTSTTTVFMEVTNLRSEDTAVYYCARAGEYCRGIRCYVDGIDMWGQGTMITVSS
VL: B10 VL with V15I, K45Q, T85S, Y87F, D93S
notes: as for B1
B12: RUPA-58 (antibody, V domains shown)
VH: QVQLVQSGPEAKKPGASVKVSCQASGYPFSGYYMHWLRQAPGQGLEWMGWMNPNSGGTKYAQRFQGRVTMTRDTSISTAHMELRGLRSDDTAVYYCARDYCTGSSCYRTDYDYWGQGTLVTVSS
VL: DIQMTQSPSSLSASVGDRVTITCRASQIISTYLNWYQHKPGKAPKLLIKSASTLQSGVPSRFSGSGSGTDFTLTITSLQPEDFATFYCQQSYRDPITFGQGTRLEIK
notes: as for B1
B13: RUPA-156 (antibody, V domains shown)
VH: EVQLVESGGGLVQPGGSLRLSCVVSGFTFSRYSMYWVRQAPGKGPEWVSYIDSTGTTIYYADSVKGRFTISRDNAKSSLSLQMSSLRDDDRGVYYCARDGRKDSGSFLDHWGQGTLVTVSS
VL: DIQMTQSPSSLSASVGDRVTITCRASQSISEWLAWYQQKPGKAPRLLIYQASSLQSGVPSRFSGSGSGTEFTLTISSLQSDDFATYYCQQFDTYWTFGQGTKVEIK
notes: as for B1
B14: RUPA-130 (antibody, V domains shown)
VH: EVQLVESGGGLVKPGGSLRLSCEASGFTFRNAWMSWVRQAPGKGLEWVGRIKSYIDGGTADYAAPVKGRFSISRDDSKNTLFVQMNSLKTEDTAVYYCTTDSWAGEVGNYYFDNWGQGTLVTVSS
VL: QSALTQPASVSGSPGQSITISCTGTSSDVGSYNFVSWYQQHPGKAPKLMIYQVTWRPSGVSNRFSGSKSGNTASLTISGLQAEDEADYYCCSYSKSSTYVFGTGTKVSVL
notes: source: recombinant human IgG1, 293T (Protein A purified) or GenScript
B15: RUPA-165 (antibody, V domains shown)
VH: VQLQQWGAGLLKPSETLSLTCLVNGGSFSDYYWSWIRQPPGRGLEWIGDVNHSGTTNHRPSLQSRVTLSLDMSKNQFSLKLTSVTAADTAVYFCARRSSGYYRGSRYTGWLDPWGQGTLVTVSS
VL: IVMTQSPLSLSVSPGERATLSCRASQTITRNLAWYQQKPGQAPRLLIYGASTRAPDIPARFSASGSGTEFTLTISSLQSEDFALYYCQQYNNWPGLTFGGGTKVEIK
notes: as for B1
B16: RUPA-119 (antibody, V domains shown)
VH: QVRLQQWGAGLLKPSETLSLTCGVSGGSFSDYYWTWIRQPPGKGLEWIGDISHSANTNYNESLQSRLTISVDTSKTQFSLRLASVTAADTALYFCARRSSGWYRQSRYTGWFDPWGQGTLVTVSS
VL: B4 VL with L3V, T28S, M48I, T56A, S77T, G84A, I85V, S98T, K104T
notes: as for B1
B17: RUPA-155 (antibody, V domains shown)
VH: B7 VH with P73S, K76N, H77Q, K81R
VL: B4 VL with L3V, Q27H, T28S, T30N, L33V, M48I, S80T, G84A, I85V
notes: as for B1
B18: RUPA-122 (antibody, V domains shown)
VH: QITLKESGPTLVKPTQTLMLTCSVSGFSLSNNGVAVGWVRQPPGKALEWLALIYWNDDSFYRPSLKSRLTINKDTSKNQVVLTMTNVAPVDTATYFCARTMKKITMIRGVPYEGGVQGFDPWGPGILVTVSS
VL: DIQMTQSPSSLSASVGDRVTITCRASQGIRDDLAWYQQKPGKAPERLIYAASSLQSGVPSRFSGSGYGTEFTLTISSLQPEDFATYYCQQYSGYFTFGGGTKVEIN
notes: as for B1
B19: RUPA-164 (antibody, V domains shown)
VH: QVQLQESGPGLVKPSETLSLTCSVSGGSMTSFYWSWIRQPPGKGLEWIGYVYYNGTTNYKPSLKSRVTISVDMSKNQVSLKLSSVTAADTAVYYCARDRVVGSYYYGMDVWGQGTTVTVSS
VL: EIVLTQPPVSLSLSPGEGATLSCRASQSVSSSYLAWYQQKPGQAPRLLMYSASRRATGIPDRFTGSGSGTDFTLTISRLEPEDFALYYCQHYGGSPRETFGQGTKVEIK
notes: as for B1

biological target: T1, recombinant full-length Pfs48/45 (Plasmodium falciparum 3D7, UniProt Q8I6T1); assay: ELISA; settings: both partners purified
T1 sequence (Q8I6T1 28-428): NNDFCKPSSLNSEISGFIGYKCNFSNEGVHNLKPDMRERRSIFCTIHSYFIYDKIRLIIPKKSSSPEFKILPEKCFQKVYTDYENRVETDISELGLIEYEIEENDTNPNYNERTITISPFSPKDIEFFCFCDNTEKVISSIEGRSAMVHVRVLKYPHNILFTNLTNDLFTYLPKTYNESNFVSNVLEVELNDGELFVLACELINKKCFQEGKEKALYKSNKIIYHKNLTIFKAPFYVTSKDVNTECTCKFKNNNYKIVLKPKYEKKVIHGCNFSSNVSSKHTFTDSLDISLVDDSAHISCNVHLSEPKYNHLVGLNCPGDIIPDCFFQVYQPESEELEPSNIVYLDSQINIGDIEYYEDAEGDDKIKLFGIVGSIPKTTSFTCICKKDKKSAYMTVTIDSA

| Binder | binding result |
| --- | --- |
| B1 | binds |
| B2 | binds |
| B3 | binds |
| B4 | binds |
| B5 | binds |
| B6 | binds |
| B7 | binds |
| B8 | binds |
| B9 | binds |
| B10 | binds |
| B11 | binds |
| B12 | binds |

biological target: T2, Pfs48/45 D1-2 (Plasmodium falciparum 3D7, UniProt Q8I6T1); assay: ELISA; settings: both partners purified
T2 sequence (Q8I6T1 28-289): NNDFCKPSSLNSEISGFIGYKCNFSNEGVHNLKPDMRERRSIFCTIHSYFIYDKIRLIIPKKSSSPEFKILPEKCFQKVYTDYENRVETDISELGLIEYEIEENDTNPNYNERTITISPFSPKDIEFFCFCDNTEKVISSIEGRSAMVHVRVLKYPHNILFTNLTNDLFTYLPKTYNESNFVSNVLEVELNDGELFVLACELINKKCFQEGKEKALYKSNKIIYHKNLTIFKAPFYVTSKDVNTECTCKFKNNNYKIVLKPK

| Binder | binding result |
| --- | --- |
| B1 | binds |
| B2 | binds |
| B3 | binds |
| B4 | binds |
| B5 | binds |
| B6 | binds |
| B7 | binds |
| B8 | binds |
| B9 | binds |
| B10 | binds |
| B11 | binds |
| B12 | binds |

biological target: T1, recombinant full-length Pfs48/45; assay: ELISA; settings: both partners purified; remark: another data set of the same source

| Binder | binding result |
| --- | --- |
| B13 | binds |
| B14 | binds |
| B15 | binds |
| B16 | binds |
| B17 | binds |
| B18 | binds |
| B19 | binds |

biological target: T2, Pfs48/45 D1-2; assay: ELISA; settings: both partners purified; remark: another data set of the same source

| Binder | binding result |
| --- | --- |
| B13 | binds |
| B14 | binds |
| B15 | binds |
| B16 | binds |
| B17 | binds |
| B18 | binds |
| B19 | binds |
